Reference: patent US20260049138A1

molecular target: CD3ε homodimer protein (human) (UniProt P07766); assay: SPR
Sequence (P07766 23-126 limits assumed): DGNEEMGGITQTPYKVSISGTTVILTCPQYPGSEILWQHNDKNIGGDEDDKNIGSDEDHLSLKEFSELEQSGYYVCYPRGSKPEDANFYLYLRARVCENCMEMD

KD ratio to GLS3000	Binder
13000	GLS3000 H27dT (antibody, name in Kabat numbering, V domains shown) VH: QVQLVESGGGVVQPGRSLRLSCAASGFTFSNAWMHWVRQAPGKGLEWVAQIKAKSNNYATYYAESVKGRFTISRDDSKNSLYLQMNSLKTEDTAVYYCRYVHYGAYYGVDAWGQGTTVTVSS VL: DIVMTQSPLSLPVTPGEPASISCRSSQSLVTSNRNTYLHWYQQKPGQAPRLLIYKVSNRFSGVPDRFSGSGSGTDFTLKISRVEAEDVGVYYCGQGTQVPYTFGQGTKLEIK
4130	GLS3000 G89R (antibody, name in Kabat numbering, V domains shown) VH: QVQLVESGGGVVQPGRSLRLSCAASGFTFSNAWMHWVRQAPGKGLEWVAQIKAKSNNYATYYAESVKGRFTISRDDSKNSLYLQMNSLKTEDTAVYYCRYVHYGAYYGVDAWGQGTTVTVSS VL: DIVMTQSPLSLPVTPGEPASISCRSSQSLVHSNRNTYLHWYQQKPGQAPRLLIYKVSNRFSGVPDRFSGSGSGTDFTLKISRVEAEDVGVYYCRQGTQVPYTFGQGTKLEIK
72100	GLS3000 G91S (antibody, name in Kabat numbering, V domains shown) VH: QVQLVESGGGVVQPGRSLRLSCAASGFTFSNAWMHWVRQAPGKGLEWVAQIKAKSNNYATYYAESVKGRFTISRDDSKNSLYLQMNSLKTEDTAVYYCRYVHYGAYYGVDAWGQGTTVTVSS VL: DIVMTQSPLSLPVTPGEPASISCRSSQSLVHSNRNTYLHWYQQKPGQAPRLLIYKVSNRFSGVPDRFSGSGSGTDFTLKISRVEAEDVGVYYCGQSTQVPYTFGQGTKLEIK
85800	GLS3000 H34R (antibody, name in Kabat numbering, V domains shown) VH: QVQLVESGGGVVQPGRSLRLSCAASGFTFSNAWMHWVRQAPGKGLEWVAQIKAKSNNYATYYAESVKGRFTISRDDSKNSLYLQMNSLKTEDTAVYYCRYVHYGAYYGVDAWGQGTTVTVSS VL: DIVMTQSPLSLPVTPGEPASISCRSSQSLVHSNRNTYLRWYQQKPGQAPRLLIYKVSNRFSGVPDRFSGSGSGTDFTLKISRVEAEDVGVYYCGQGTQVPYTFGQGTKLEIK
354	GLS3000 H27dV (antibody, name in Kabat numbering, V domains shown) VH: QVQLVESGGGVVQPGRSLRLSCAASGFTFSNAWMHWVRQAPGKGLEWVAQIKAKSNNYATYYAESVKGRFTISRDDSKNSLYLQMNSLKTEDTAVYYCRYVHYGAYYGVDAWGQGTTVTVSS VL: DIVMTQSPLSLPVTPGEPASISCRSSQSLVVSNRNTYLHWYQQKPGQAPRLLIYKVSNRFSGVPDRFSGSGSGTDFTLKISRVEAEDVGVYYCGQGTQVPYTFGQGTKLEIK
4460	GLS3000 N28D (antibody, name in Kabat numbering, V domains shown) VH: QVQLVESGGGVVQPGRSLRLSCAASGFTFSNAWMHWVRQAPGKGLEWVAQIKAKSNNYATYYAESVKGRFTISRDDSKNSLYLQMNSLKTEDTAVYYCRYVHYGAYYGVDAWGQGTTVTVSS VL: DIVMTQSPLSLPVTPGEPASISCRSSQSLVHSDRNTYLHWYQQKPGQAPRLLIYKVSNRFSGVPDRFSGSGSGTDFTLKISRVEAEDVGVYYCGQGTQVPYTFGQGTKLEIK

molecular target: biotinylated CD3ε epitope peptide; assay: SPR, Biacore T100, biotinylated CD3ε epitope peptide on CM5 via streptavidin, antibody as analyte

Kd [nM]	Binder
67	CE115_M (antibody, V domains shown) VH: EVQLVETGGSLVQPGKSLKLTCATSGFTFSNAWMHWVRQSPEKQLEWVAQIKAKSNNYATYYAESVKGRFTISRDDSKSNIYLQMNSLKEEDTAVYYCRYVHYGAYYGVDAWGQGTSVTVSS VL: DVVMTQTPVSMSVSLGGQVSISCRSSQSLVHNNGNTYVSWYIQKPSQSPQLLIYKVSNRFSGISDRFSGSGSGTDFTLKISRVEPDDLGVYYCGQGTQDPYTFGAGTKLELK
